B1: NES(PKI)-EGFP (other)
chain: SNELALKLAGLDIN
modifications: PKI-type NES core with short flanks, mEGFP carrier left out; the exact construct (PKI01, pTG-A450) is not printed and may be an optimised NES variant
B2: prf.GLFG_(52x12) (other)
chain: GGLFGGNTQPATGGLFGGNTQPATGGLFGGNTQPATGGLFGGNTQPATGGLFGGNTQPATGGLFGGNTQPATGGLFGGNTQPATGGLFGGNTQPATGGLFGGNTQPATGGLFGGNTQPATGGLFGGNTQPATGGLFGGNTQPATGGLFGGNTQPATGGLFGGNTQPATGGLFGGNTQPATGGLFGGNTQPATGGLFGGNTQPATGGLFGGNTQPATGGLFGGNTQPATGGLFGGNTQPATGGLFGGNTQPATGGLFGGNTQPATGGLFGGNTQPATGGLFGGNTQPATGGLFGGNTQPATGGLFGGNTQPATGGLFGGNTQPATGGLFGGNTQPATGGLFGGNTQPATGGLFGGNTQPATGGLFGGNTQPATGGLFGGNTQPATGGLFGGNTQPATGGLFGGNTQPATGGLFGGNTQPATGGLFGGNTQPATGGLFGGNTQPATGGLFGGNTQPATGGLFGGNTQPATGGLFGGNTQPATGGLFGGNTQPATGGLFGGNTQPATGGLFGGNTQPATGGLFGGNTQPATGGLFGGNTQPATGGLFGGNTQPATGGLFGGNTQPATGGLFGGNTQPATGGLFGGNTQPATGGLFGGNTQPATGGLFGGNTQPATGGLFGGNTQPATC
notes: C-terminal Cys residue fused for maleimide labelling; also called GLEBS-free, perfectly repeated FG variant; ultimately simplified FG domain

Legend:
human Exportin 1 = target: T1, human Exportin 1 (human, UniProt O14980 1-1071); assay: NTR-dependent recruitment of a fluorescent cargo into FG phase particles (confocal laser-scanning microscopy); prf.GLFG_(52x12) phase challenged with import cargo (IBB-EGFP; IBB-MBP-GFP-M9) or export cargo (NES-EGFP + RanQ69L) in the absence or presence of the corresponding NTRs (Impβ, transportin, Xpo1); conditions: both partners purified
T1 construct: Exportin 1 (Xpo1/CRM1), human; also called hsXpo1; Xpo1; source: bacterial expression construct, purified (native Ni(II) chelate chromatography)
T1 sequence (O14980 whole entry): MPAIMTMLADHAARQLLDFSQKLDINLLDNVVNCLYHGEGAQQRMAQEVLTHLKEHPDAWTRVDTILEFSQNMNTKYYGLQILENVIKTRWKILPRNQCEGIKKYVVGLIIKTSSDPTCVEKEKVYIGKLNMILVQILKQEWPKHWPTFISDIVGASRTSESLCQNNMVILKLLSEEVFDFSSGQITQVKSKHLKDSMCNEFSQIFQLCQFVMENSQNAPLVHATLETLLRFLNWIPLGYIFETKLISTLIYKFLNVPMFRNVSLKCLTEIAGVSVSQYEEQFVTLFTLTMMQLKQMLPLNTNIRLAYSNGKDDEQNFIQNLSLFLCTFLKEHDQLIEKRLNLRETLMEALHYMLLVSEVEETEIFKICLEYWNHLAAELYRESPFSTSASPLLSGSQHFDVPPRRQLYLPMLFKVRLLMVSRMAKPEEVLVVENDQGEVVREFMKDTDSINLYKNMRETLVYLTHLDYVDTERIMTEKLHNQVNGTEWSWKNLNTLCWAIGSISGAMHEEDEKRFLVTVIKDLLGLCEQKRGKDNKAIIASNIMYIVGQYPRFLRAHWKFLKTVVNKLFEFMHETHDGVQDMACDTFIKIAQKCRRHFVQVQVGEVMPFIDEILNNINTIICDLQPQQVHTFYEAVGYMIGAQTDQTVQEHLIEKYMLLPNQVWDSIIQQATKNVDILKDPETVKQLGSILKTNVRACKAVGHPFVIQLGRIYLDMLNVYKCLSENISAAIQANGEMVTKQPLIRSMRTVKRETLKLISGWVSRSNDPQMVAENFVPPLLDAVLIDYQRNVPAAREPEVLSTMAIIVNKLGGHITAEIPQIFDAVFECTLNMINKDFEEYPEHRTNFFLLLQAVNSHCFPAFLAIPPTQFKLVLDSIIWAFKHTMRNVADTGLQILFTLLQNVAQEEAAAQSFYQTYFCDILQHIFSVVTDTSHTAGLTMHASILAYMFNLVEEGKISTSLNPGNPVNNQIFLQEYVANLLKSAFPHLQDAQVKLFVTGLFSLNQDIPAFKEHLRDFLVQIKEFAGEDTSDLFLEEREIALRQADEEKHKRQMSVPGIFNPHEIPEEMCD

[1] = target: T2, Alexa Fluor 488-labeled rat NTF2 (rat, UniProt P61972 1-127, Alexa Fluor 488 label (site not stated)); assay: partitioning into FG phase particles (FG particle permeation assay, confocal laser-scanning microscopy); FG domain diluted out of 4 M guanidinium hydrochloride into 50 mM Tris/HCl pH 7.5, 150 mM NaCl, 5 mM DTT, 5 µM FG domain; fluorescent probe in the buffer (mCherry 5 µM, probes with partition coefficient ≥2 at 0.75 µM); particles sedimented 60 min; ratio of fluorescence inside to outside the particles; 21 °C; conditions: both partners purified
T2 construct: nuclear transport factor 2 (NTF2), rat, 30-kDa nuclear transport receptor (dimer); The methods say that most NTRs were His-tagged fusions whose tags were cleaved off; also called Alexa488-labeled NTF2; source: bacterial expression construct, purified (native Ni(II) chelate chromatography)
T2 sequence (P61972 whole entry, the tested form may be a part): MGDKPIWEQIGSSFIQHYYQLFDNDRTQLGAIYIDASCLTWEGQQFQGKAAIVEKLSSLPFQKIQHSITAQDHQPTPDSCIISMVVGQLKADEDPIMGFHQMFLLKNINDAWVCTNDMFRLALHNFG

Binder | fold stimulation of the cargo's entry into the prf.GLFG_(52x12) phase by Xpo1 (with RanQ69L) (human Exportin 1) | binding result [1]
B1 | 3500 fold | 
B2 |  | binds

From article PMC8245513, “Recapitulation of selective nuclear import and export with a perfectly repeated 12mer GLFG peptide” (Nature Communications, 2021)
